Values of other authors as cited in PMC7463749.

Assays:
BB2R (Homo sapiens) = BB2R (Homo sapiens) (UniProt P30550)
BB1R (Homo sapiens) = BB1R (Homo sapiens) (UniProt P28336)
UniProt P28336, sequence (P28336 whole entry): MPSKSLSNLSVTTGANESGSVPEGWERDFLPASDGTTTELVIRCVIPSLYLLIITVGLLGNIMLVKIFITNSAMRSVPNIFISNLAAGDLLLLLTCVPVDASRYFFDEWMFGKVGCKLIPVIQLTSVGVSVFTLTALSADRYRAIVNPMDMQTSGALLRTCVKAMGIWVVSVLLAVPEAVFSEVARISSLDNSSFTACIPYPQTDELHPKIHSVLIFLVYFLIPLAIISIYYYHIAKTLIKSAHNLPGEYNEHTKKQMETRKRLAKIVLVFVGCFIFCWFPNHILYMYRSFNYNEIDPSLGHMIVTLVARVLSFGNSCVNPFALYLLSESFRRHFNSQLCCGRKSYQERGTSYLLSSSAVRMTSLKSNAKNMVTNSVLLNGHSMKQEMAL

UniProt P30550, sequence (P30550 whole entry): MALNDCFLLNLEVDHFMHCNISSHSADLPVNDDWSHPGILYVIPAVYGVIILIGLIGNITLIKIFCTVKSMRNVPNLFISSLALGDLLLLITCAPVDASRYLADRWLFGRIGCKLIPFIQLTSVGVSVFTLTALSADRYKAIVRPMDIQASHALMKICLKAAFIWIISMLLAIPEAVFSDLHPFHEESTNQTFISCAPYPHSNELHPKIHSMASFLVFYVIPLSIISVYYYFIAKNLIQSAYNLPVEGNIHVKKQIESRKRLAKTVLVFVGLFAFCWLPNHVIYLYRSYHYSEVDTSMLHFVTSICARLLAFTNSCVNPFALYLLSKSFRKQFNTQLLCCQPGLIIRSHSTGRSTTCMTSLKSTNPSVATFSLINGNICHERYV

Ki (BB2R (Homo sapiens))	Ki (BB1R (Homo sapiens))	Substance
190 pM		gastrin-releasing peptide (from UniProt P07492)
	52 pM	neuromedin B (from UniProt P08949)
